Experimental data taken from article PMC5373596, “Metal-dependent SpoIIE oligomerization stabilizes FtsZ during asymmetric division in Bacillus subtilis” (PLoS ONE, 2017).
Blank lines part the entries; values can stand above or below the binder they belong to.

B2: strep-tagged-SpoIIEcyt (cytoplasmic part of SpoIIE, MBP removed) (domain or fragment, B. subtilis 168, UniProt P37475 326-827, looked up)
chain: RKVARYIPGTVEHLQEQQQYARKIRDVTAQKVDQFSNVFHALSESFATFYQASDEQTDDSEVDLFLSKITEHSCQTCYKKNRCWVQNFDKTYDLMKQVMLETEEKEYASNRRLKKEFQQYCSKSKQVEELIEDELAHHHAHLTLKKKVQDSRRLVAEQLLGVSEVMADFSREIKREREQHFLQEEQIIEALQHFGIEIQHVEIYSLEQGNIDIEMTIPFSGHGESEKIIAPMLSDILEEQILVKAEQHSPHPNGYSHVAFGSTKSYRVSTGAAHAAKGGGLVSGDSYSMMELGARKYAAAISDGMGNGARAHFESNETIKLLEKILESGIDEKIAIKTINSILSLRTTDEIYSTLDLSIIDLQDASCKFLKVGSTPSFIKRGDQVMKVQASNLPIGIINEFDVEVVSEQLKAGDLLIMMSDGIFEGPKHVENHDLWMKRKMKGLKTNDPQEIADLLMEEVIRTRSGQIEDDMTVVVVRIDHNTPKWASIPVPAIFQNKQEIS
notes: SpoIIE of Bacillus subtilis 168, domains II and III (cytoplasmic part), amino acids 326-827; called a 501 residue fragment; also called s-SpoIIEcyt; strep-SpoIIEcyt; not shown: MBP, N-terminal, cleaved; strep-tag, N-terminal, kept

What was measured:
[1] = molecular target: the molecule itself; test: co-sedimentation; 10 μM ms-SpoIIEcyt in 50 mM MES/NaOH pH 6.5, 50 mM KCl; after 1 mM EDTA, 5 mM MnCl2 added for 30 min; spun at 186,000 x g, supernatant and pellet on SDS-PAGE
[2] = molecular target: the molecule itself; test: transmission electron microscopy; 10 μM FtsZ with or without 1.5 μM s-SpoIIEcyt, or 1.5 μM s-SpoIIEcyt alone with 10 mM MnCl2, in 50 mM Tris/HCl pH 7.5, 300 mM KCl with 1 mM EDTA or 10 mM MgCl2 or 10 mM MnCl2; GTP or GDP; samples taken after 30 min at 30°C
[3] = molecular target: the molecule itself; test: 90° light scattering; 10 μM FtsZ and/or 1.5 μM s-SpoIIEcyt in 50 mM Tris/HCl pH 7.5, 300 mM KCl, 10 mM MgCl2; 2 mM GTP or GDP added after 90 s; 30°C; controls of FtsZ alone with Mn2+ or EDTA
[4] = molecular target: B2; test: as above; settings: both partners purified

B1: MBP-strep-tag-SpoIIEcyt fusion protein (cytoplasmic part of SpoIIE, domains II and III) (domain or fragment, B. subtilis 168, UniProt P37475 326-827, looked up)
chain: RKVARYIPGTVEHLQEQQQYARKIRDVTAQKVDQFSNVFHALSESFATFYQASDEQTDDSEVDLFLSKITEHSCQTCYKKNRCWVQNFDKTYDLMKQVMLETEEKEYASNRRLKKEFQQYCSKSKQVEELIEDELAHHHAHLTLKKKVQDSRRLVAEQLLGVSEVMADFSREIKREREQHFLQEEQIIEALQHFGIEIQHVEIYSLEQGNIDIEMTIPFSGHGESEKIIAPMLSDILEEQILVKAEQHSPHPNGYSHVAFGSTKSYRVSTGAAHAAKGGGLVSGDSYSMMELGARKYAAAISDGMGNGARAHFESNETIKLLEKILESGIDEKIAIKTINSILSLRTTDEIYSTLDLSIIDLQDASCKFLKVGSTPSFIKRGDQVMKVQASNLPIGIINEFDVEVVSEQLKAGDLLIMMSDGIFEGPKHVENHDLWMKRKMKGLKTNDPQEIADLLMEEVIRTRSGQIEDDMTVVVVRIDHNTPKWASIPVPAIFQNKQEIS
notes: SpoIIE of Bacillus subtilis 168, domains II and III (cytoplasmic part), amino acids 326-827; called a 501 residue fragment; Order on the chain: MBP (from pMalC2x), short strep-tag, SpoIIE 326-827; Co-purifies with about 2 Fe per protein; also called ms-SpoIIEcyt; source: E. coli BL21-RIL, purified (amylose resin, eluted with maltose); not shown: MBP, N-terminal, kept; strep-tag, N-terminal, kept
binding result [1]: binds

Binder: B2
binding result [2]: binds

binding result [4]: binds
B3: FtsZ (natural protein, B. subtilis, UniProt P17865 1-382, looked up)
chain: MLEFETNIDGLASIKVIGVGGGGNNAVNRMIENEVQGVEYIAVNTDAQALNLSKAEVKMQIGAKLTRGLGAGANPEVGKKAAEESKEQIEEALKGADMVFVTAGMGGGTGTGAAPVIAQIAKDLGALTVGVVTRPFTFEGRKRQLQAAGGISAMKEAVDTLIVIPNDRILEIVDKNTPMLEAFREADNVLRQGVQGISDLIATPGLINLDFADVKTIMSNKGSALMGIGIATGENRAAEAAKKAISSPLLEAAIDGAQGVLMNITGGTNLSLYEVQEAADIVASASDQDVNMIFGSVINENLKDEIVVTVIATGFIEQEKDVTKPQRPSLNQSIKTHNQSVPKREPKREEPQQQNTVSRHTSQPADDTLDIPTFLRNRNKRG
notes: Cell division protein FtsZ of Bacillus subtilis; source: purified as described [25], > 95% purity
binding result [3]: binds
